Reference: US20250326813A1 (ELPIS BIOPHARMACEUTICALS, published 2025)
Where a chain is given by its changes, count along the chain named.

T1: human IL2Rα Fc fusion protein (human, UniProt P01589 22-213, limits assumed)
T1 construct: also called CD25; not shown: Fc part
T1 sequence (looked up): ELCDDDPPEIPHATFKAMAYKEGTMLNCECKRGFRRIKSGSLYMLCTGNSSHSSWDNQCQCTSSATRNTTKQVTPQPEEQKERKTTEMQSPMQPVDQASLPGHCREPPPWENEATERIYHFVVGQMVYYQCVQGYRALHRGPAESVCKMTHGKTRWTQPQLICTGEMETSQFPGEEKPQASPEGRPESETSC

T2: human IL2Rβ Fc fusion protein (human, UniProt P14784 27-239)
T2 construct: also called ILR2β; CD122; not shown: Fc part
T2 sequence (looked up): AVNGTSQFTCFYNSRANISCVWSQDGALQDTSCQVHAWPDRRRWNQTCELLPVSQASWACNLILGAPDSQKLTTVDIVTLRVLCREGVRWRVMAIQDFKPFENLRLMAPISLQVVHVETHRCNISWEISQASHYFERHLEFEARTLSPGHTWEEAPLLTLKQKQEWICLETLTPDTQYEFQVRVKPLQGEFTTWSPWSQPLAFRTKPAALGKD

B1: EP564 (clone 2021EP22-E11), E. coli-produced (ligand)
chain: APASSSTKKTQLQLEHLLLDLQMILNGINNYKNPKLTRMLTFKFYMPKKATELKHLQCLEEELKPLEEVLNLAQSKNFHLRFKALIIEINFIVQLLKGSETTFMCEYADETATIVEFLNRWITFSQSIISTLT
B2: EP585 (clone 2021EP16-C03), E. coli-produced (ligand)
chain: APASSSTKKTQLQLEHLLLDLQMILNGINNYKNPKLTRMLTFKFYMPKKATELKHLQCLEEELKPLEEVLNLAQSKNFHLSPPDLIANMAVYFVELKGSETTFMCEYADETATIVEFLNRWITFSQSIISTLT
B3: EP576 (clone 2021EP21-C10), E. coli-produced (ligand)
chain: APASSSTKKTQLQLEHLLLDLQMILNGINNYKNPKLTRMLTFKFYMPKKATELKHLQCLEEELKPLEEVLNLAQSKNFHLLPRNKISKTKVMVHELKGSETTFMCEYADETATIVEFLNRWITFSQSIISTLT
B4: EP581 (clone 2021EP16-C10), E. coli-produced (ligand)
chain: APASSSTKKTQLQLEHLLLDLQMILNGINNYKNPKLTRMLTFKFYMPKKATELKHLQCLEEELKPLEEVLNLAQSKNFHLRSREVVSRIDAIILELKGSETTFMCEYADETATIVEFLNRWITFSQSIISTLT
B5: EP569 (clone 2021EP22-E03), E. coli-produced (ligand)
chain: APASSSTKKTQLQLEHLLLDLQMILNGINNYKNPKLTRMLTFKFYMPKKATELKHLQCLEEELKPLEEVLNLAQSKNFHLRRKESINHMIVVFPVLKGSETTFMCEYADETATIVEFLNRWITFSQSIISTLT
B6: EP575 (clone 2021EP16-D09), E. coli-produced (ligand)
chain: B1 chain with F82N, A84G, L85I, I86L, I87G, E88D, N90S, F91N, Q94L, L95A
B7: EP571 (clone 2021EP22-H02), E. coli-produced (ligand)
chain: B2 chain with S81R, P83S, D84E, I86M, N88T, A90R, Y92P, F93V, V94Q, E95A
B8: EP578 (clone 2021EP16-H02), E. coli-produced (ligand)
chain: B4 chain with R81T, S82T, E84D, S87M, R88T, I89M, D90A, A91R, I93D
B9: EP574 (clone 2021EP22-B04), E. coli-produced (ligand)
chain: APASSSTKKTQLQLEHLLLDLQMILNGINNYKNPKLTRMLTFKFYMPKKATELKHLQCLEEELKPLEEVLNLAQSKNFHLFTKDLTSTMQILVLQLKGSETTFMCEYADETATIVEFLNRWITFSQSIISTLT
B10: EP573 (clone 2021EP16-E02), E. coli-produced (ligand)
chain: APASSSTKKTQLQLEHLLLDLQMILNGINNYKNPKLTRMLTFKFYMPKKATELKHLQCLEEELKPLEEVLNLAQSKNFHLNRTDLVGDVNATIKALKGSETTFMCEYADETATIVEFLNRWITFSQSIISTLT
B11: EP565 (clone 2021EP22-F10), E. coli-produced (ligand)
chain: B4 chain with E84Q, V85L, V86I, R88N, I89M, D90N, A91G, E95K
B12: EP570 (clone 2021EP21-E03), E. coli-produced (ligand)
chain: APASSSTKKTQLQLEHLLLDLQMILNGINNYKNPKLTRMLTFKFYMPKKATELKHLQCLEEELKPLEEVLNLAQSKNFHLSSSGLLGDVWVIVLDLKGSETTFMCEYADETATIVEFLNRWITFSQSIISTLT
B13: EP582 (clone 2021EP16-G10), E. coli-produced (ligand)
chain: B3 chain with L81T, P82H, N84D, K85V, K88D, T89V, K90N, M92L, V93A, H94L
B14: EP577 (clone 2021EP16-E05), E. coli-produced (ligand)
chain: B3 chain with L81K, P82A, R83I, N84A, K85F, K88D, T89L, M92R, H94L, E95D
B15: EP572 (clone 2021EP21-C03), E. coli-produced (ligand)
chain: B3 chain with L81R, P82A, N84D, K85I, I86V, S87R, K88N, T89A, M92G, H94Q
B16: EP566 (clone 2021EP22-H09), E. coli-produced (ligand)
chain: APASSSTKKTQLQLEHLLLDLQMILNGINNYKNPKLTRMLTFKFYMPKKATELKHLQCLEEELKPLEEVLNLAQSKNFHLRLTHLRNVIGVILVQLKGSETTFMCEYADETATIVEFLNRWITFSQSIISTLT
B17: EP583 (clone 2021EP16-H10), E. coli-produced (ligand)
chain: B12 chain with S82A, S83I, G84D, L86M, G87S, D88S, W90K, I92V, L94W, D95K
B18: EP579 (clone 2021EP16-E11), E. coli-produced (ligand)
chain: APASSSTKKTQLQLEHLLLDLQMILNGINNYKNPKLTRMLTFKFYMPKKATELKHLQCLEEELKPLEEVLNLAQSKNFHLRPSYIVSYTNVFPLVLKGSETTFMCEYADETATIVEFLNRWITFSQSIISTLT
B19: EP586 (clone 2021EP16-E07), E. coli-produced (ligand)
chain: B16 chain with L82P, T83R, H84D, L85S, N87R, V88L, G90S, L93V, V94F, Q95R

These binders were tested against T1, human IL2Rα Fc fusion protein (assay: SPR (Biacore T200), receptor captured on Protein A chip, IL2 at 100 nM and 20 nM).
Procedure: The assay was run with Biacore T200 control software version 2.0. For each cycle, 1 μg/mL of human IL2Rβ or IL2Rα was captured for 60 seconds at flow rate of 10 μL/min on flow cell 2 in 1× HBSP buffer on Protein A sensor chip. 100 nM and 20 nM of HIS tag purified engineered IL2 mutant was injected onto both reference flow cell 1 and IL2Rβ or IL2Rα captured flow cell 2 for 150 seconds at flow rate of 30 μL/min followed by washing for 300 seconds. The flow cells were then regenerated with Glycine pH 2 for 60 seconds at a flow rate of 30 μL/mins. The kinetics data was analyzed with Biacore T200 evaluation software 3000. The specific binding response unit was derived from subtraction of binding to reference flow cell 1 from target flow cell 2.

Row | Kd [nM] | Binder
1 | 18 | B1
2 | 4260 | B2
3 | 143 | B3
4 | 106 | B4
5 | 47.8 | B5
6 | 98.2 | B6
7 | 117 | B7
8 | 9340 | B8
9 | 207 | B9
10 | 55.1 | B10
11 | 142 | B11
12 | 21.3 | B12
13 | 151 | B13
14 | 956 | B14
15 | 75.5 | B15
16 | 523 | B16

These binders were tested against T1, human IL2Rα Fc fusion protein (assay: ELISA, single concentration, anti-flag detection, E. coli-produced clone).
Procedure: (§1) Supernatants containing engineered IL2 mutants were assessed with sandwich ELISA assay to screen for IL2Rα binding. Briefly, 96-well plate was immobilized with human Fc and human IL2Rα, respectively, at a final concentration of 2 μg/mL in 1× PBS in total volume of 50 μL per well. The plate was incubated overnight at 4° C. followed by blocking with 200 μL of superblock per well for 1 hour. 100 μl of supernatant was added to both Fc and IL2Rα immobilized wells and incubated for 1 hour with shaking. The engineered IL2 mutant binding was detected by adding 50 μL of anti-Flag HRP diluted at 1:5000 in 1× PBST. In between each step, the plate was washed three times with 1× PBST in a plate washer. The plate was then developed with 50 μL of TMB substrate for five minutes and stopped by adding 50 μL of 2N sulfuric acid. The plate was read at OD450 nm using a Biotek plate reader and the binding and selectivity was analyzed.
as §1, with “Single clones were next screened for IL2Rβ binding. IL2Rβ binding screening ELISA was developed for the identification of individual” for “Supernatants containing”, “mutant.” for “mutants were assessed with sandwich ELISA assay to screen for IL2Rα binding.”, “IL2Rβ,” for “IL2Rα,”, “IL2Rβ” for “IL2Rα”
(§2) To further triage, the engineered IL2 clones with unique sequences were produced in E. coli. In short, the glycerol stock of each engineered agonist clone was inoculated into TB medium for overnight growth. The next day, cells from the overnight culture were inoculated into TB medium and grown to a cell density of OD₆₀₀ between 0.6-0.8. IPTG was added to a final concentration of 1 mM to induce the expression during culture at 30° C. overnight. The supernatant was collected by centrifugation.

Row | OD450 nm [OD450] | Binder
17 | 0.086 | B1
18 | 0.614 | B2
19 | 0.361 | B3
20 | 0.88 | B4
21 | 0.433 | B5
22 | 1.25 | B6
23 | 0.423 | B7
24 | 0.857 | B8
25 | 0.171 | B9
26 | 1.58 | B10
27 | 0.749 | B17
28 | 0.105 | B11
29 | 0.528 | B12
30 | 1.08 | B13
31 | 0.771 | B14
32 | 0.079 | B15
33 | 0.251 | B16

Each binder was assayed against T2, human IL2Rβ Fc fusion protein in the same assay as above.
Procedure: as §1
as §1, with “Single clones were next screened for IL2Rβ binding. IL2Rβ binding screening ELISA was developed for the identification of individual” for “Supernatants containing”, “mutant.” for “mutants were assessed with sandwich ELISA assay to screen for IL2Rα binding.”, “IL2Rβ,” for “IL2Rα,”, “IL2Rβ” for “IL2Rα”
as §2

Row | OD450 nm [OD450] | Binder
34 | 0.583 | B2
35 | 1.12 | B3
36 | 0.127 | B4
37 | 0.057 | B6
38 | 0.653 | B7
39 | 0.611 | B18
40 | 0.07 | B10
41 | 0.323 | B17
42 | 0.337 | B13
43 | 0.505 | B19
44 | 0.149 | B14
45 | 0.143 | B15
